Key:
Sfp [1] = target: T1, Sfp (Bacillus subtilis, UniProt P39135); test: tritium incorporation into apo MBP-PhsA-His6; format: biochemical; conditions: acceptor apo MBP-PhsA-His6; labelled compound
T1 sequence (P39135 1-224): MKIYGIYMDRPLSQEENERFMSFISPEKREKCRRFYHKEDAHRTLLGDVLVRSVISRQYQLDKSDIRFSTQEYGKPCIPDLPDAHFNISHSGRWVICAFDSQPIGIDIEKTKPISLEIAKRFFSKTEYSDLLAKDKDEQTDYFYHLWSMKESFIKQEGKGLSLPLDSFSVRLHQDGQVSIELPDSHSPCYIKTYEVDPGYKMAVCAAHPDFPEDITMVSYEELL

Sfp [2] = target: T1, Sfp; test: fluorescent labelling of apo MBP-PhsA-His6, SDS-PAGE; format: biochemical; conditions: acceptor apo MBP-PhsA-His6; labelled compound
ATP-PPi exchange assay [3] = substrate: CC(=O)N[C@@H](CCC(=O)O)C(=O)O; test: ATP-PPi exchange assay; format: biochemical, Streptomyces viridochromogenes; conditions: holo form (phosphopantetheinylated by Sfp), apparent constant
ATP-PPi exchange assay [4] = substrate: CC(=O)N[C@@H](CC[PH](=O)O)C(=O)O; test: ATP-PPi exchange assay; format: biochemical, Streptomyces viridochromogenes; conditions: holo form (phosphopantetheinylated by Sfp), apparent constant

## CC(=O)SCCNC(=O)CCNC(=O)[C@H](O)C(C)(C)COP(=O)(O)OP(=O)(O)OC[C@H]1O[C@@H](n2cnc3c(N)ncnc32)[C@H](O)[C@@H]1OP(=O)(O)O [[^3H]acetyl-CoA]
Sfp [1]
  tritium incorporation into apo MBP-PhsA-His6: [^3H]acetyl-CoA was utilized as a cosubstrate, resulting in a time-dependent increase

## CC1=CC(C)=[N+]2C1=Cc1ccc(CCC(=O)NCCN3C(=O)CC(SCCNC(=O)CCNC(=O)[C@H](O)C(C)(C)COP(=O)(O)OP(=O)(O)OC[C@H]4O[C@@H](n5cnc6c(N)ncnc65)[C@H](O)[C@@H]4OP(=O)(O)O)C3=O)n1[B-]2(F)F (some centres unmarked) [BODIPY-FL-N-(2-aminoethyl)maleimidyl-S-CoA]
Sfp [2]
  fluorescent labelling of apo MBP-PhsA-His6, SDS-PAGE: CoA analogue BODIPY-FL-N-(2-aminoethyl)maleimidyl-S-CoA was employed to install a fluorescently labeled phosphopantetheine arm

B1: MBP−PhsA−His6 (Streptomyces viridochromogenes) (protein)
chain: MTAATPDTAPDRTGPSPGACPVVAEFARRAQAGPDRPAVVLPEETVDYRELAARADAVARALLDSRGEGSEPVPLMVLHPAWMLAACLGVLKAGKYYVPLNPHHPDARNRDLLARLGAALVVTDGAVPGRLPGRITVLSVGELDVRPGTPGEPGPAVAPDQWAYALYTSGSTGLPKGILQNRADMRQNIDRHAALGIGPEDRVTLINADGFVAAVSNPYMALLNGAALVPYSFQRDGVHDLIDRLDAAGTTVYYSFPSFLRQAAAVSEGRTTDRVRLAYLGGESVHSSDVLAARRLFPAATVAVGLNSTETGLTRLRLIPPGAEVPDPVPVGGPVPGVEVRVEASPGRPAAVGEAGRIVVRSAFLHAAQWTDQGPRPLTEAVPEADSGTACEPAPRDFRTGDRGRLDGTGQLVHLGRVDGMVKVRGYRVETVEVESAVSAVTGVAEAAVVPYETAEHATELAAYVVAKDPDLTDAALRRALSETLPTHLVPSSVLLVPRLPRTRNGKIDRKALPDPASGTSGTAVSRPAPAHTPAPAPGDGPDEARARVLGQVGEIWSDVLGAGPVLPGDDFFSLGGTSISALRVVSRIRKELGVPLRLAVIFETPSLEAVAESVLRELKGT
ATP-PPi exchange assay [3]
  Km: 493 ± 82 µM
  kcat: 0.48 ± 0.025 s⁻¹
  kcat/Km: 973 ± 167 M⁻¹ s⁻¹
ATP-PPi exchange assay [4]
  Km: 254 ± 44 µM
  kcat: 2.08 ± 0.108 s⁻¹
  kcat/Km: 8170 ± 1500 M⁻¹ s⁻¹

— PMC2709985 (Biochemistry, 2009)
